Results on two molecules are retold here after patent US20110312897A1, “CATHEPSIN L PROTEOLYTICALLY PROCESSES HISTONE H3 DURING MOUSE EMBRYONIC STEM CELL DIFFERENTIATION” (THE ROCKEFELLER UNIVERSITY, priority 2008, published 2011).

In this data set the test system is rH3-HIS. The data set can be described thus: H3 cleavage assay with recombinant cathepsins. It counts as biochemical, mouse. How it is done:
Extracts were incubated in buffer (10 mM HEPES, 10 mM KCl, 1.5 mM MgCl2, 0.34M sucrose, 10% glycerol, 5 mM β-mercaptoethanol, all final) with 0.1 μg/μl rH3-HIS (purified from E. coli) and incubated at 37° C. for 1-3 hours. Reactions were stopped by addition of 5×SDS sample buffer and boiling; results were analyzed by immunoblotting with HIS-HRP and/or H3.cs1 antibody. For MS analysis, reactions were quenched by addition of 0.1% (final) TFA. rCathepsin L (R&D Systems, # 1515-CY-010), rCathepsin B (R&D Systems Cat No. BAF965), and rCathepsin K (Calbiochem Cat. No. 342001) were purchased from commercial sources and tested in the assay with rH3-HIS.
To further validate the identification of Cathepsin L as an H3 protease, recombinant mouse Cathepsin L enzyme was tested in the H3 cleavage assay (FIG. 5). […] To further characterize the sites of proteolytic cleavage, the reaction products of rCathepsin L and rH3-HIS were analyzed by MS. […] Also observed in both reactions were five of the six complementary N-terminal peptides generated by rCathepsin L cleavage of H3 (left), and their abundances correlated, as expected, with that of their C-terminal counterparts. […] In addition, the relative abundances of the in vivo H3 cleavage sites and those produced by Cathepsin L in vitro are highly correlative. […] Taken together, the above data support the conclusion that Cathepsin L is capable of generating all of the histone H3.2 fragments observed at day three following induction of ESC differentiation by retinoic acid.
Other cathepsin family members were then tested in the H3 cleavage assay. rCathepsin B, one of the most abundant lysosomal proteases, and rCathepsin K, which is reported to have a significant preference for leucine in the P2 position of its substrates much like Cathepsin L, were chosen to be tested first (Cathepsin S also shares this preference but was not found to have significant expression in our ESC model). Following pre-activation the recombinant enzymes, Cathepsins B, K, and L were incubated with rH3-HIS at both pH 5.5. and pH 7.5, and the reactions were then analyzed by immunoblotting with both HIS and H3.cs1 antibodies.

Setting [1] is: pre-activated enzymes, pH 5.5 and pH 7.5.

B1: recombinant mouse Cathepsin L: recombinant mouse Cathepsin L enzyme (R&D Systems, # 1515-CY-010) (protein)
chain: TPKFDQTFSAEWHQWKSTHRRLYGTNEEEWRRAIWEKNMRMIQLHNGEYSNGQHGFSMEMNAFGDMTNEEFRQVVNGYRHQKHKKGRLFQEPLMLKIPKSVDWREKGCVTPVKNQGQCGSCWAFSASGCLEGQMFLKTGKLISLSEQNLVDCSHAQGNQGCNGGLMDFAFQYIKENGGLDSEESYPYEAKDGSCKYRAEFAVANDTGFVDIPQQEKALMKAVATVGPISVAMDASHPSLQFYSSGIYYEPNCSSKNLDHGVLLVGYGYEGTDSNKNKYWLVKNSWGSEWGMEGYIKIAKDRDNHCGLATAASYPVVN
For B1, where the note is “pH 5.5 and pH 7.4”, the “cleavage of recombinant histone H3” value is recorded as “able to cleave recombinant histone H3” and the “generation of epitope recognized by H3.cs1 antibody” value is listed as “created the specific epitope”. Also, the rH3-HIS cleavage pattern entry under setting [1] is recorded as “cleaves rH3-HIS robustly”.

B2: Cathepsin K: recombinant Cathepsin K (Calbiochem Cat. No. 342001) (protein, UniProt P43235 115-329, looked up)
Cathepsin K: APDSVDYRKKGYVTPVKNQGQCGSCWAFSSVGALEGQLKKKTGKLLNLSPQNLVDCVSENDGCGGGYMTNAFQYVQKNRGIDSEDAYPYVGQEESCMYNPTGKAAKCRGYREIPEGNEKALKRAVARVGPVSVAIDASLTSFQFYSKGVYYDESCNSDNLNHAVLAVGYGIQKGNKHWIIKNSWGENWGNKGYILMARNKNNACGIANLASFPKM
Consider B2, for which, under setting [1], the H3.cs1 epitope production entry is listed as “less abundant”.
